Experimental data from publication PMC8956657 (2022).
Where no end group is shown, it is not given here.

What was measured:
[1] = target: IMPα2 lacking the IBB domain (residues 70-529) (UniProt P52293 70-529); experiment: FP
[2] = target: IMPα5 lacking the IBB domain (residues 73-538) (UniProt P52294 73-538); experiment: FP
IMPα5 lacking the IBB domain (residues 73-538), sequence (P52294 73-538): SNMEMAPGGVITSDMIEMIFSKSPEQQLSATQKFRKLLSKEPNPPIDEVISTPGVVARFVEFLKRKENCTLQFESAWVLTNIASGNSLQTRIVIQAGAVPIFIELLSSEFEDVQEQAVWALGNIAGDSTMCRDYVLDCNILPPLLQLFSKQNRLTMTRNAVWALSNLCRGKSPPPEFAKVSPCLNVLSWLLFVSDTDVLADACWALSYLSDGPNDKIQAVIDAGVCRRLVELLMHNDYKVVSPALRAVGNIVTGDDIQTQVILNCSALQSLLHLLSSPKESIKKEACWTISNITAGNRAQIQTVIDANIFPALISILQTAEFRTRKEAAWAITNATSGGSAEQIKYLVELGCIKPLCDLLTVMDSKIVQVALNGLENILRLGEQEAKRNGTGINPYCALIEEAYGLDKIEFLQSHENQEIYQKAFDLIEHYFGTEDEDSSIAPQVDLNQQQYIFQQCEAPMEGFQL

B1: FITC-tagged MERS-CoV ORF4b NLS peptide (residues 19-39), wild type (peptide)
peptide: RKARKRSHSPTKKLRYVKRRF
modifications: also: FITC-tagged
B1 was tested, and the Kd [1] was 11.3 nM and the Kd [2] was 9.6 nM.
